The target in experiment [1] is T1, AT4G35510.1 TRBIP1 (Arabidopsis thaliana).
T1 construct: Endogenous protein found by mass spectrometry
T1 chain: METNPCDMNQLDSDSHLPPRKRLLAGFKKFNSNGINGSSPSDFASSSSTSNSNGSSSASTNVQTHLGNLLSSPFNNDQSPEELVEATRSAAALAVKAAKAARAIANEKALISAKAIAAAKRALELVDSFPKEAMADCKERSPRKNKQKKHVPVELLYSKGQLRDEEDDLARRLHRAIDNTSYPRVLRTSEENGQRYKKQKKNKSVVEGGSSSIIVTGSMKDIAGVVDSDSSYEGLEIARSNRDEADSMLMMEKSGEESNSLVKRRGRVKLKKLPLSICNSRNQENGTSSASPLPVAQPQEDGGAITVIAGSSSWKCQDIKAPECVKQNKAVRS
Nature of the experiment: IP-MS rep 1. As for the experimental part:
(§1) The method of IP-MS used in this Example has been described in a recent paper (see e.g., Xue, Nat. Comm., 2021). Ten grams of unopened floral buds from Col-0 wild type and FLAG-tag transgenic plants, including PHD1, MOM1, AIPP3, MOM2, MORC6, PIAL2, TRB1, TRB2, TRB3, JMJ14, HD2A, HD2B, and ELF7 were collected and ground into fine powder with liquid nitrogen. These samples were resuspended with 25 mL IP buffer and homogenized until lump-free by dounce homogenizer. The lysate was filtered through Miracloth and incubated with 250 μL anti-FLAG M2 magnetic beads (Sigma) at 4° C. for 2 hours. The magnetic beads were washed with IP buffer and eluted with TBS containing 250 μg/mL 3×FLAG peptides. The eluted proteins were precipitated with trichloroacetic acid (Sigma) and subject to MS analyses as described previously (see e.g., Xue, Nat. Comm., 2021).

For experiment [2], the target named is T2, AT2G17540.2 TRBIP2 (Arabidopsis thaliana).
T2 construct: Endogenous protein found by mass spectrometry
T2 chain: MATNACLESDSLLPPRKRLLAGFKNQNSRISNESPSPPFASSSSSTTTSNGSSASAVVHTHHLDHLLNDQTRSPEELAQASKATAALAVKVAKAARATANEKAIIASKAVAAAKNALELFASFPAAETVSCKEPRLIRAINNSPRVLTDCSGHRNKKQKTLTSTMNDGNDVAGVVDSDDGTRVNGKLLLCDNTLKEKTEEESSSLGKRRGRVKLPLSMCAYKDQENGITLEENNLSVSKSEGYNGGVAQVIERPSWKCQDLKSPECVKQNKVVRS
The experiment can be described thus: IP-MS rep 1. On the procedure: as §1

Experiment [3] deals with T3, AT4G20400.1 JMJ14 (Arabidopsis thaliana, UniProt Q8GUI6 1-954).
T3 construct: Endogenous protein found by mass spectrometry; also called JUMONJI 14
T3 sequence (Q8GUI6 whole entry): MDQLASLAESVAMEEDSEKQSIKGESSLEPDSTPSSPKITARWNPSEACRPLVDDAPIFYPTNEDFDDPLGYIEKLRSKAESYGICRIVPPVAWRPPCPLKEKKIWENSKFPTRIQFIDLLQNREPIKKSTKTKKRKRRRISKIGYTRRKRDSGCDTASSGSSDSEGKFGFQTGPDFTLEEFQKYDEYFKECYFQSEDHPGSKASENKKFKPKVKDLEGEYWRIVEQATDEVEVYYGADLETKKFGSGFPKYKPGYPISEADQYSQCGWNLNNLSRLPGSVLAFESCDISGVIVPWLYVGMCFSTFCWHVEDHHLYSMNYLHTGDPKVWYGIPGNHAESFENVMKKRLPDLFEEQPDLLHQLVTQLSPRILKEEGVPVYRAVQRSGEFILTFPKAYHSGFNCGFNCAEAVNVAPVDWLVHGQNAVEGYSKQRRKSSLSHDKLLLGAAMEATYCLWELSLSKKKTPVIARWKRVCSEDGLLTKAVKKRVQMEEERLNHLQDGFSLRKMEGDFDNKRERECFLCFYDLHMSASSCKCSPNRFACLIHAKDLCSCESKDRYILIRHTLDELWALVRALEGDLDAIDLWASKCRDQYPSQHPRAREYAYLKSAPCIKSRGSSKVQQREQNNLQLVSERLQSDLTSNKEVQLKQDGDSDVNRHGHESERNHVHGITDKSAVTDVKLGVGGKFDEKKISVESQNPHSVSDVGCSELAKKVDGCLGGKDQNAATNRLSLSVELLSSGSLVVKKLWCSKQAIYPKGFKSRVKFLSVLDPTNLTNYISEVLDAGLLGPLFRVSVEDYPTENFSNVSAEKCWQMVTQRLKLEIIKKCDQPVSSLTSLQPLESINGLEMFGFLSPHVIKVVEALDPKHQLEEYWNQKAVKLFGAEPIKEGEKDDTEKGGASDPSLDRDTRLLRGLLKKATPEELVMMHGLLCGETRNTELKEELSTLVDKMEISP
Nature of the experiment: IP-MS rep 1. As for the experimental part:
as §1

Experiment [4] concerns the target T1, AT4G35510.1 TRBIP1. Nature of the experiment: IP-MS rep 2. On the procedure:
as §1

The target of experiment [5] is T2, AT2G17540.2 TRBIP2. Nature of the experiment: IP-MS rep 2. On the procedure:
as §1

Experiment [6] deals with T3, AT4G20400.1 JMJ14. Nature of the experiment: IP-MS rep 2. On the procedure:
as §1

Experiment [7] has as its target T1, AT4G35510.1 TRBIP1. Nature of the experiment: X-link IP-MS.
Experiment [8] addresses T2, AT2G17540.2 TRBIP2. Nature of the experiment: X-link IP-MS.
In experiment [9] the target is T3, AT4G20400.1 JMJ14. The experiment can be described thus: X-link IP-MS.
Experiment [10] has as its target T4, AT5G51230.1 EMF2 (Arabidopsis thaliana, UniProt Q8L6Y4 1-631).
T4 construct: Endogenous protein found by mass spectrometry; also called EMBRYONIC FLOWER 2
T4 sequence (looked up): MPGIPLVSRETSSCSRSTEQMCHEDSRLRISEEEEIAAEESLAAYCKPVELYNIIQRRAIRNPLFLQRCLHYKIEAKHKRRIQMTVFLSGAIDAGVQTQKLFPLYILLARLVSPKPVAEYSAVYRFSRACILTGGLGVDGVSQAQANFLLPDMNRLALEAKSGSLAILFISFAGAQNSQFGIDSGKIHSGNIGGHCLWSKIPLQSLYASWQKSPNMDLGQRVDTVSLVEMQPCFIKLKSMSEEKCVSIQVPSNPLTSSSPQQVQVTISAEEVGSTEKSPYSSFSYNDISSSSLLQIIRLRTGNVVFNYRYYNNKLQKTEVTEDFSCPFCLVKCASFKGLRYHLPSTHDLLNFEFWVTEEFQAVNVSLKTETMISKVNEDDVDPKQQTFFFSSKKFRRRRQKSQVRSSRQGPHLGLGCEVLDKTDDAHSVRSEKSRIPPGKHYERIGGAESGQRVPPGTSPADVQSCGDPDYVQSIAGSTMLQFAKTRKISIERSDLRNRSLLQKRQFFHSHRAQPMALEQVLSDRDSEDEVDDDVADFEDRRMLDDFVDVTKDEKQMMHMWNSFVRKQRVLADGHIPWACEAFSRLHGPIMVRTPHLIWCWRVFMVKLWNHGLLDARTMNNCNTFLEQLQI
The experiment can be described thus: IP-MS rep 1. As for the experimental part:
as §1

Experiment [11] has as its target T5, AT2G23380.1 CLF (Arabidopsis thaliana, UniProt P93831 1-902).
T5 construct: Endogenous protein found by mass spectrometry; also called CURLY LEAF
T5 sequence (looked up): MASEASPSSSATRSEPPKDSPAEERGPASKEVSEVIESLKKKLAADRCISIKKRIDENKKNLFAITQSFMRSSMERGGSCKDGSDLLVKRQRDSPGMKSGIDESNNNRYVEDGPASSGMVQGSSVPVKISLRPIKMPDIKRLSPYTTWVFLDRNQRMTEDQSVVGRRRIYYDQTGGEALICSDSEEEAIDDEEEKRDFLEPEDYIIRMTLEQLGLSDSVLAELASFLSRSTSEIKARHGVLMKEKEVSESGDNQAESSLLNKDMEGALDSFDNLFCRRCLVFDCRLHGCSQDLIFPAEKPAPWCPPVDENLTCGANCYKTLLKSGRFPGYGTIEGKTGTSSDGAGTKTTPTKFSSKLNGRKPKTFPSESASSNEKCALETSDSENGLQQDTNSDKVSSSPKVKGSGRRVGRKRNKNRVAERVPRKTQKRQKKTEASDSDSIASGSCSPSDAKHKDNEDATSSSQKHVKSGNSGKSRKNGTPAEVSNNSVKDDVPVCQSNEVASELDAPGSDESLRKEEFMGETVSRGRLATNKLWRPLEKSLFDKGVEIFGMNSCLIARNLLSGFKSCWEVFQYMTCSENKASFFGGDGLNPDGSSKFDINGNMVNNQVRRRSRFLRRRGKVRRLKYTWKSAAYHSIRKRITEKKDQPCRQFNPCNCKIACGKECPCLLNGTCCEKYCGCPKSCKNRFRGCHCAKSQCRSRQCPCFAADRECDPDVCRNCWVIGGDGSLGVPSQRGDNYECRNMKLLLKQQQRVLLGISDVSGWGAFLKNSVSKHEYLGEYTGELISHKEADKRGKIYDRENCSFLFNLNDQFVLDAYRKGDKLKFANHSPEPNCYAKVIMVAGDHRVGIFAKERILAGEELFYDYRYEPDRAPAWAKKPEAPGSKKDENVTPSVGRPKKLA
Nature of the experiment: IP-MS rep 1. As for the experimental part: as §1

Experiment [12] concerns the target T6, AT3G49850.1 TRB3 (Arabidopsis thaliana, UniProt Q9M2X3 1-295).
T6 construct: Endogenous protein found by mass spectrometry
T6 sequence: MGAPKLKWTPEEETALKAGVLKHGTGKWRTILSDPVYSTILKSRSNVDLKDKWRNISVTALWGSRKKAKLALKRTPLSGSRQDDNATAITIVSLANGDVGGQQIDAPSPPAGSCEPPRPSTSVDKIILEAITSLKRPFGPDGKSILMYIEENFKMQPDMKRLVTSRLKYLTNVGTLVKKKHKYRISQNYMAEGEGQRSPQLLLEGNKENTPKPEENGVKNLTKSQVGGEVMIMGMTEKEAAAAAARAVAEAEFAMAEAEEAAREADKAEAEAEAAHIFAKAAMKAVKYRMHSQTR
The experiment can be described thus: IP-MS rep 1. As for the experimental part:
as §1

Experiment [13] concerns the target T4, AT5G51230.1 EMF2. The experiment can be described thus: IP-MS rep 2. As for the experimental part:
as §1

In experiment [14] the target is T5, AT2G23380.1 CLF. Nature of the experiment: IP-MS rep 2. On the procedure: as §1
The target of experiment [15] is T6, AT3G49850.1 TRB3. The experiment can be described thus: IP-MS rep 2. As for the experimental part:
as §1

Experiment [16] has as its target T4, AT5G51230.1 EMF2. Nature of the experiment: X-link IP-MS.
In experiment [17] the target is T5, AT2G23380.1 CLF. The experiment can be described thus: X-link IP-MS.
In experiment [18] the target is T6, AT3G49850.1 TRB3. Nature of the experiment: X-link IP-MS.

B1: FLAG-TRB2 (other, not shown: small tags and cut ends)
chain: MGAPKQKWTPEEEAALKAGVLKHGTGKWRTILSDSEFSLILKSRSNVDLKDKWRNISVTALWGSRKKAKLALKRTPPGTKQDDNNTALTIVALTNDDERAKPTSPGGSGGGSPRTCASKRSITSLDKIIFEAITNLRELRGSDRTSIFLYIEENFKTPPNMKRHVAVRLKHLSSNGTLVKIKHKYRFSSNFIPAGARQKAPQLFLEGNNKKDPTKPEENGANSLTKFRVDGELYMIKGMTAQEAAEAAARAVAEAEFAITEAEQAAKEAERAEAEAEAAQIFAKAAMKALKFRIRNHPW
notes: FLAG-tagged TRB2 from its native promoter; tag position under the label FLAG-TRB2 not certain; also called TRB2-FLAG; TRB-FLAG
In the case of B1, the IP-MS count with AT4G35510.1 TRBIP1 [1] is 22; in the experiment with AT2G17540.2 TRBIP2 [2] it was 10; in the experiment with AT4G20400.1 JMJ14 [3] it was 3; with AT4G35510.1 TRBIP1 [4] it was 22; in the experiment with AT2G17540.2 TRBIP2 [5], 10; with AT4G20400.1 JMJ14 [6], 4. In addition, the IP-MS count with AT4G35510.1 TRBIP1 [7] turned out to be 16; with AT2G17540.2 TRBIP2 [8] it was 7; in the experiment with AT4G20400.1 JMJ14 [9], 78.

B2: FLAG-TRB1 (other, not shown: small tags and cut ends)
chain: MGAPKQKWTQEEESALKSGVIKHGPGKWRTILKDPEFSGVLYLRSNVDLKDKWRNMSVMANGWGSREKSRLAVKRTFSLPKQEENSLALTNSLQSDEENVDATSGLQVSSNPPPRRPNVRLDSLIMEAIATLKEPGGCNKTTIGAYIEDQYHAPPDFKRLLSTKLKYLTSCGKLVKVKRKYRIPNSTPLSSHRRKGLGVFGGKQRTSSLPSPKTDIDEVNFQTRSQIDTEIARMKSMNVHEAAAVAAQAVAEAEAAMAEAEEAAKEAEAAEAEAEAAQAFAEEASKTLKGRNICKMMIRA
notes: FLAG-tagged TRB1 from its native promoter in the trb1 mutant background; Printed both as TRB-FLAG and FLAG-TRB1; the vector description gives a C-terminal 3xFLAG-BLRP, so the tag position under the label FLAG-TRB1 is not certain; also called TRB1-FLAG; TRB-FLAG
For B2, the IP-MS count worked out at 0 with AT5G51230.1 EMF2 [10]; 0 with AT2G23380.1 CLF [11]; 5 with AT4G35510.1 TRBIP1 [1]; 18 in the experiment with AT2G17540.2 TRBIP2 [2]; 0 in the experiment with AT3G49850.1 TRB3 [12]; 0 in the experiment with AT5G51230.1 EMF2 [13]. The IP-MS count with AT2G23380.1 CLF [14] came out at 0; with AT4G35510.1 TRBIP1 [4] it was 11; with AT2G17540.2 TRBIP2 [5] it was 22; with AT3G49850.1 TRB3 [15], 0; in the experiment with AT5G51230.1 EMF2 [16] it was 0; in the experiment with AT2G23380.1 CLF [17] it was 0. For the same molecule, the IP-MS count with AT4G35510.1 TRBIP1 [7], with AT2G17540.2 TRBIP2 [8] and with AT3G49850.1 TRB3 [18] was 0 in each case.

Source of the values: US20250042956A1 (University of California, published 2025).
